The record followed here is the nanobody polyreactivity screen of Harvey et al. (2022).

The data set can be described thus: yeast display, Sf9 membrane polyspecificity reagent, FACS + sequencing; frameworks hold sequencing errors. The method in brief:
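Synthetic nanobody libraries on Saccharomyces cerevisiae BJ5465 were galactose-induced for 36–48 hours, stained 1 hour at 4 °C with 10% biotinylated, detergent-solubilized Sf9 membrane reagent and enriched on streptavidin microbeads. FACS then separated cells into low and high (top ~1%) gates by anti-HA (expression) and streptavidin (reagent binding) fluorescence. Genes were colony-PCR amplified, MiSeq 2 × 250 sequenced and CDR-length filtered. A clone's polyreactivity label is that of its gate of origin.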
For “QVQLVESGGGLVQAGGSLRLSCAASGRTFYPYDLGWYRQEPGKERELVAAIRENGGSTYFADSVKGRFTISRDNAKNTVYLQLTSLKPEDNAVYYCAARNTRYWRYEYWGLGTQVTVSS”, the “polyreactivity (PSR sort gate)” value is “high polyreactivity”.

“QDQHVESGGGLVQAVGSLRLSCAASGRIIVDYAMGWYRQAPGKERDLVATITNGGSTNYADSVKGRFTISRDNAKNTVYLQMNSLKPEDTAVYYCAVDYLLDYYSYIEDYWGQGTQVTVSS”: the “polyreactivity (PSR sort gate)” value was “low polyreactivity”.

For “QDQLVESGGGLVQAGGSLRLSCAASGRTFAFKSMGWYRQAPGKERELVAAIRWSGGTTYYADSVKGRFTISRDNANNTVYLQMNSLKPEDTAVYYCATGKWVYFRYNYWGLGTQVTVSS”, the “polyreactivity (PSR sort gate)” value is “high polyreactivity”.

Take “QVQLVESGGGLVQAGGSLRISCAASGSTFGRNAMGWYSQAPGKERELVAAISSGGSTSYADSVKGRFTISRDNAKYTVYLQMNSLKPEDTAVYYCAAHSVGSQYDYWGQGTQVTVSS”: the “polyreactivity (PSR sort gate)” value is reported as “low polyreactivity”.

For “QVQLVESGGGLVQAGGSLRLSCAASGSTFGLYAMGWYRQAPGKERELVAAITIRGGSTYYADSVKGRFTISRDNAKNTVYLQMNSLKPEDTAVYYCAADYWYGGFEYWGQGTQVTVSS”, the “polyreactivity (PSR sort gate)” value is on record as “low polyreactivity”.

With “QVQLVESGGGLVQAGGSLRLSCAASGSTFRYYTMGWYRQAPGKERELVAAITRRSASTYYADSVKGRFTISRDNAKNTVYLQMNSLKPEDTAVYYCAVRTNGPFEYWGQGTQVTVSS”, the “polyreactivity (PSR sort gate)” value is recorded as “high polyreactivity”.

On to “QVQLVESGGGLVQAGGSLRLSCAASGGTFYGYAAMGWYRQAPGKERELVAAISRSGGRTYYADSVKGRFTISRDNAKNTVYLQMNSLKPEDTAVYYCNVGFYPYYFLTYQGGDYWGQGTQVTVSS”, for which the “polyreactivity (PSR sort gate)” value is given as “high polyreactivity”.

With “QVQLVETGGGLVQAGGSLRLSCAASGITFFGYDIGWYRQAPGKERELVAAINSRGGNTYYADSVKGRFTISRDNAKYTVYLQMNSLKPEDTAVYYCAARRYYNRAYGYWGQGTQVTVSS”, the “polyreactivity (PSR sort gate)” value is on record as “high polyreactivity”.

Consider “QVQLVESGGGLVQAGGSLRLSCAASGLIFTRYTMGWYRQAPGKERELVAGISWSGGRTYYADSVKGRFTISRDKAKYTVYLQMNSLKPEDTAVYYCAADSYYSRAYDYWGQGTQVTVSS”, for which the “polyreactivity (PSR sort gate)” value is listed as “high polyreactivity”.

In the case of “QVQLVESGGGLVQAGGSLRLSCAASGRIFVYNAMGWYRQAPGKERELVAAITYSVDSTYYADSVKGRFTISRDNAKNTVYLQMNSLKPEDTAVYYCAADDFHYVIHAYYSSGVDYWGQGTQVTVSS”, the “polyreactivity (PSR sort gate)” value is recorded as “low polyreactivity”.

Turning to “QDQLVETGGGLVQAGGSLRLSCAASRNTFAQKAMGRSRQAPGKERELVAAITDGTSTNYADSVKGRFTISRDNAKNTVYLQMNSLKPEDKAVYYCAAESLYTLFYWGYDYWGQGTQVTVSS”, the “polyreactivity (PSR sort gate)” value is reported as “low polyreactivity”.

Consider “QVQLVESGGGLVQAGGSLRLSCAASGLIFIAYAMGWYRQAPGKERELVAAISSSGGSTYYADSVKGPFTISRDNAKNTFYLQMNSLKPEDTGVYYCAADRFDWGTGRYGYWVQGTQVTVSS”, for which the “polyreactivity (PSR sort gate)” value is given as “low polyreactivity”.

With “QVQLVESGGGLVQAGGSLRLSCAASGSTFGGYAMGWYRQAPGKERELVAGISSGTSTYYADSVKGRFTISRDNAKNTVYLQMNSLKPEDTAVYYCAKYSYYRKLGYWGQGTQVTVSS”, the “polyreactivity (PSR sort gate)” value was “high polyreactivity”.

Consider “QVQLVESGGGLVQAGGSLRLSCAASGFIFDYYAMGWYRQAPGKERELVAAITSRSGSTYYADSVKGRFTISRDNAKNTVYLQMNSLKPEDTAVYYCARRFKYGSTAWRFYYWGQGTQVTVSS”, for which the “polyreactivity (PSR sort gate)” value is on record as “high polyreactivity”.

Turning to “QVQLVESGGGLVQAGGSLRLSCAASGLTFIYYAMGWYRQAPGKERELVAAISVSGGSTYYADSVKGRFTISRDNAKNTVYLQMNSLKPEDTAVYYCAADWFVHIPRYQYSFDYWGQGTQVTVSS”, the “polyreactivity (PSR sort gate)” value is given as “low polyreactivity”.

For the sequence “QVQLVESGGGIVQAGGSLSLRCAASGRIFITNAMGWNRQAPGKERELVAAIRRRGGNTYYADSVKGRFTISRDNGKNTVYLLMNSLKPEDSAVYYCAVYPRPYNYNYWGQGTQVTVSS”, the “polyreactivity (PSR sort gate)” value is on record as “high polyreactivity”.

With “QVQLVESGGGLVQAGGSLRLTCAASGSIFPGYAMGWYRQAPGKDRELVATITASGGSTYYADSVKGRFTISRDNAKNTVFLQMISLKPEDTAVYDCAKDRYWYFRRRGQYDYWGQGTQVTVSS”, the “polyreactivity (PSR sort gate)” value was “high polyreactivity”.

In the case of “QVQLVESGGGLVQAGGSLRLSCAASGLTIWKYTMGWYRQAPGKERELVAAISISGTNTYYADSVKGRFTISRDNAKNTVYLQMNSLKPEDTAVYYCAAVRGYPPTNYYYWGQGTQVSVSS”, the “polyreactivity (PSR sort gate)” value is “high polyreactivity”.

For the sequence “QVQLVESGGGLVQAGGSLRLSCAASGSTLIIYAMGWYRQAPGKERELVATISWSGGNTYYADSVKGRFTISRDNAKYTVYLQMNSLKPEDTAVYYCAARWYYYPLLYDYWGQGTQVTVSS”, the “polyreactivity (PSR sort gate)” value is recorded as “low polyreactivity”.

For “QVQLEESGGGVVQAGGSLRLSCAASGSTFLQYAMGWYRQATGKERELVAAISWRAGSTYYADSVKGRFTISRDTAQNTVYLQMNSLKPEDTAVYYCAADRNGWRYELDDYDYWGQGTQVTVSS”, the “polyreactivity (PSR sort gate)” value is on record as “low polyreactivity”.

Turning to “QVQLVESGGGLVQAGGSLRLSCAASGRTFGYNVMGWYRQAPGKERELVARITSGGNTKYADSVKGRFTISRDNAKNTVYLQMNSLKPEDTAVYYCAKRPLGVRGIYFQYDYWGQGTQVTVSS”, the “polyreactivity (PSR sort gate)” value is “high polyreactivity”.

As to “QVQLVDSGGGLVQAGGTLRLSCASSGSTFYYYAMGWYRQAPGKERELVAGITSGGSTNYADSVKGRFTISRDNAKNTVKLLMNSLKPEDTADYYCNARYRKYRYRYDYWGQGTQVSVSS”, the “polyreactivity (PSR sort gate)” value is given as “low polyreactivity”.

With “QVQLVESGGGLVQAGGSLRLSCAASGRIFADYAMGWYRQAPGKETELVAAISSTSSTNYADSVKGRFTISRDNAKNTVYLQMNSLKPEDTAVYYCAKRIGHLPFRPYDYWGQGTQVTVSS”, the “polyreactivity (PSR sort gate)” value is on record as “low polyreactivity”.

Consider “QVQLVESGGGLVQAGGSLRLSCAASGFTFRYYAMGSYRQAPGKERELVAAISAGGGSTYYADSVKGRFTISRDNAKNTVYLQMNSLKPEDTAVYYCAAAGARPGYDYWGQGTQVTVSS”, for which the “polyreactivity (PSR sort gate)” value is “high polyreactivity”.

On to “QVQLVESGGGLDQAGGSLRLSCAASGSTFQVNVMAWYRQAPGKEREFVAGISYSGGSTYYADSVKGRFTISRDNAKNTVYLQMNSLKPEDTAVYYCAAEEDYNIAGSWTYTYDYWGQGTQVTVSS”, for which the “polyreactivity (PSR sort gate)” value was “low polyreactivity”.

With “QVQLVESGGGLVQAGGSIRLSCAASGSTFANYAMGWYRQAPGKERELVAAISWSGSYTYYADSVKGSFTISRDNAKNTVYLQMNSLKPEDTAVYYCAADYDTPTWEYYYWGQGTQVTVSS”, the “polyreactivity (PSR sort gate)” value is “low polyreactivity”.

For “QVQLVESGGGLVQAGGSLRLSCAASGSTFYSYAMGWYRQAPGKEREFVAVISWSGGRTRYADSVKGRFTISRDNAKNTVYLQMNSLKPEDTAVYYCNARKWGYSPHRKGDRHFEYWGQGTQVTVSS”, the “polyreactivity (PSR sort gate)” value is “low polyreactivity”.

Take “QVQLVESGGGLVQAGGSLRLSCAASGSIFTKYAMGWYRQAPGKERELVAAITWSGGRTYYADSVKGRFTISRDNAKNTVYLQMNSLKPEDTAVYYCAADFFRQGYYYWGQGTQVTVSS”: the “polyreactivity (PSR sort gate)” value is reported as “high polyreactivity”.

Regarding “QDHLVESGEGLVQAGGSLRLSCAASGFVFAYYTMGWYRTAPGKERELVAAISRGGGRTYYADSVKGRFTISRDNAKNTVYLQMNSLKPEDTAVYYCAARNGPSIKFAVTGMDYWGQGTQVTVSS”, the “polyreactivity (PSR sort gate)” value is on record as “high polyreactivity”.

On to “QVQLVESGGGLVQAGGSLRLSCAASGSTFYRYAMGWYRQAPGKERELVAAISYRGGSTYYADSVKGRFTISRDNAKNTVYLQMNSLKPEDTAVYYCNKRSTRRYDYWGQGTQVTVSS”, for which the “polyreactivity (PSR sort gate)” value is given as “high polyreactivity”.
